Results on 1 molecule are retold here after PMC2650008.

This data set has as its target T1, PpPutA45 (Pseudomonas putida, UniProt Q9R9T7 1-45).
T1 chain: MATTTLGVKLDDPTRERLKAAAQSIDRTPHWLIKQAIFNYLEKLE
In words: EMSA. On the technique in general: Mobility shift assays separate free from complexed probe on a gel.

B1: O2-12 (dsDNA)
DNA 1: GCGGTTGCACCT
DNA 2: AGGTGCAACCGC
As to B1, the binding result is “no binding”.
